Consider 1 substance from IntAct's records for PubMed 11675338.

Test [1] addresses fog1_mouse Zfpm1 (UniProt O35615).
Test [2] has the same target. This is another data set of the same source.
For test [3] the target is unchanged. This is another data set of the same source.

fog1_mouse Zfpm1, sequence (O35615 whole entry): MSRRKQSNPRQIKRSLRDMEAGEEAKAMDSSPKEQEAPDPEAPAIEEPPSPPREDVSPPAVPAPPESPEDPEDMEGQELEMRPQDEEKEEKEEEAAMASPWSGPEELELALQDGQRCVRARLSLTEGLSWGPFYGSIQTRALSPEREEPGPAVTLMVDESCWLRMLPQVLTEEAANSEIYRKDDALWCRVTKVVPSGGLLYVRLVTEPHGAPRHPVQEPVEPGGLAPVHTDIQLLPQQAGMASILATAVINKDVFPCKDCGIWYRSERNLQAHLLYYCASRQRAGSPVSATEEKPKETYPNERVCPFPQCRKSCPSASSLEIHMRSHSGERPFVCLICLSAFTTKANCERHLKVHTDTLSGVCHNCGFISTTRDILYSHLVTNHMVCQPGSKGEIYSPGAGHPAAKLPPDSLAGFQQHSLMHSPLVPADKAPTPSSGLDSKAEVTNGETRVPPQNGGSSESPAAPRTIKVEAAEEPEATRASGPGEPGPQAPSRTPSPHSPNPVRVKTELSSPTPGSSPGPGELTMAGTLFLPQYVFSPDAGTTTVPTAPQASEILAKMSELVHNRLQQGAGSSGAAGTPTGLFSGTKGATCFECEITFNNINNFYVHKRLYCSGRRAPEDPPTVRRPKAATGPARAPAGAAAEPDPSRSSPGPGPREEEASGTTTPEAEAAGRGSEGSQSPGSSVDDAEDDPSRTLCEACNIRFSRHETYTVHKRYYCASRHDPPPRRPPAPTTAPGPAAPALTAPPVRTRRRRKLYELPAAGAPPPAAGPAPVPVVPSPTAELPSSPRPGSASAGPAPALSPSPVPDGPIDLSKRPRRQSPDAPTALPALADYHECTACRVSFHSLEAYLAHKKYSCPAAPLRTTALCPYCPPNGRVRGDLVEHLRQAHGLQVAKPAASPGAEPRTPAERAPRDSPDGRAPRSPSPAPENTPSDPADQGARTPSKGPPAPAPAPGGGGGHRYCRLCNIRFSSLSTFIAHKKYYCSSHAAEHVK
Erythroid transcription factor (Homo sapiens), P15976 G208S, sequence (P15976 whole entry G208S): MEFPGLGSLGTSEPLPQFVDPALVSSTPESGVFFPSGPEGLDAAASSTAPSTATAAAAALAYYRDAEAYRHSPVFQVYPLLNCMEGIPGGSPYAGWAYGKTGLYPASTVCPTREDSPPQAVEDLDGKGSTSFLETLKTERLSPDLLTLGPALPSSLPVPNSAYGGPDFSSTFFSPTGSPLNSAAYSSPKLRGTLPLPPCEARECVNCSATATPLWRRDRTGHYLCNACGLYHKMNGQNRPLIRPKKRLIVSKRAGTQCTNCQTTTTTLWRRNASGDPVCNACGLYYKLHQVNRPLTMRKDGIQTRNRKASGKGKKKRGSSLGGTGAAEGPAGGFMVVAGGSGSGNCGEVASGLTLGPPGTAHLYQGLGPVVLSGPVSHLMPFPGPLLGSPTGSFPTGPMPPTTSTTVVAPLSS

Consider “Erythroid transcription factor (Homo sapiens), P15976 G208S”, for which the “effect of a mutation on the interaction” value with fog1_mouse Zfpm1 [1] is reported as “with no effect”; with fog1_mouse Zfpm1 [2], “increasing interaction strength”; with fog1_mouse Zfpm1 [3] it was “decreasing interaction strength”.
